Patent publication US20110268740A1

What was measured:
[1] = biological target: scFv-E040-msFcγ2c
[2] = biological target: M2e consensus peptide (free, soluble) (Influenza A virus (consensus of H1, H2 and H3 subtypes of human Influenza A viruses)); experiment: Friguet ELISA, free M2e peptide in solution
[3] = biological target: M2e-short (Influenza A virus (consensus)); experiment: ELISA, apparent affinity, purified scFv-msFcγ2c on immobilised M2e-short

| Binder | EC50 [1] [µM] | Kd [2] [µM] | EC50 [3] [pM] |
| --- | --- | --- | --- |
| SLLTEVETPIRNEWGCRCNDSSD (modifications not checked) [M2e consensus peptide (free, soluble)] | 21.3 |  |  |
| SLLTEVETPIRNEWGC (modifications not checked) [M2e-short] | 35.5 |  |  |
| scFv-E040-msFcγ2c (Fc fusion) DADPAQAAELVMTQSPDSLAVSLGERATINCKSSQSVLYSSNNENYLAWYQQKPGQPPKLLIYWASTRESGVPDRFSGSGSGTDFTLTINSVQAEDVAVYYCQQYFMTPITFGQGTRLEIKGGSSRSSSSGGGGSGGGGEVQLLESGGALVQPGRSLRLSCRTSGLNFGDYPINWVRQAPGKGLEWVGFIKSKSYGVTTEFAASVEGRFTISRDDSRGIAYLQMNSLKTEDTAVYYCTSSSGFLYYFDYWGQGTLVTVSSASTKGPSVTSGQAGRKLEPRVPITQNPCPPLKECPPCAAPDLLGGPSVFIFPPKIKDVLMISLSPMVTCVVVDVSEDDPDVQISWFVNNVEVHTAQTQTHREDYNSTLRVVSALPIQHQDWMSGKEFKCKVNNRALPSPIEKTISKPRGPVRAPQVYVLPPPAEEMTKKEFSLTCMITGFLPAEIAVDWTSNGRTEQNYKNTATVLDSDGSYFMYSKLRVQKSTWERGSLFACSVVHEGLHNHLTTKTISRSLGK |  | 0.004 | 90.2 |
